Here are results for three substances from PMC4722456.

This test deals with actin from chicken skeletal muscle (filamentous) (chicken) (UniProt P68139).

On to “Drosophila melanogaster indirect flight muscle myosin subfragment 1, wild type (domain or fragment)”, for which the Km for actin of the actin-activated Mg2+-ATPase (Michaelis-Menten fit) worked out at 5.77 µM.
As for “Drosophila melanogaster indirect flight muscle myosin subfragment 1, double mutant R759E/N509K (domain or fragment)”, the figure is 3.58 µM.
The value for “Drosophila melanogaster indirect flight muscle myosin subfragment 1, converter mutant R759E (domain or fragment)” was 4.99 µM.
